Data published in patent US12103957B2, “NYESO TCR” (MEDIGENE IMMUNOTHERAPIES GMBH, priority 2018, dated 2024).

Assays:
Assay type in all cases: cell-based, human
[1] = system: MM415 tumor cell line (HLA-A*02 positive, NY-ESO-1/LAGE-1 positive); experiment: Killing of tumor cells, Annexin V live-cell imaging (IncuCyte ZOOM); conditions: TCR-transduced CD8+ T cells, effector-to-target about 4:1
Method: (§1) The killing capacity of T11.8-10-17- or benchmark-TCR-transduced CD8^+ T cells (CD8-T11.8-10-17 or CD8 benchmark-TCR) was evaluated by co-culturing with the HLA-A*02 positive NY-ESO-1/LAGE-1 positive tumor cell line Me1624.38 (FIG. 2a). In addition, killing of CD8-T11.8-10-17 was also tested with the HLA-A*02 positive NY-ESO-1/LAGE-1 positive tumor cell line MM415 (FIG. 2b). As a negative control, untransduced CD8^+ enriched PBMC were used as effector cells (CD8 UT) or the HLA-A*02 positive but NY-ESO-1/LAGE-1 negative tumor cell line SK-Me123 was used as target cells. The co-cultures were set-up at an effector-to-target ratio of about 4:1, i.e. 10,000 adherent tumor cells were seeded one day prior to the co-culture and subsequently 40,000 transgenic TCR^+ T cells were added. An increase of red fluorescent target cells (Total Integrated Intensity in GCU×μm^2/Image) that indicates induction of apoptosis of target cells (Annexin V, red), was measured every four hours over a total time period of 67 hours using live-cell monitoring (IncuCyte® ZOOM).

[2] = system: Me1624.38 tumor cell line (HLA-A*02 positive, NY-ESO-1/LAGE-1 positive); experiment: as above; conditions: TCR-transduced CD8+ T cells, effector-to-target about 4:1
Method: as §1

[3] = system: SK-Me123 tumor cell line (HLA-A*02 positive, NY-ESO-1/LAGE-1 negative); experiment: as above; conditions: antigen-negative target line; effector-to-target about 4:1; 67 hours
Method: as §1

FM3.29 = experiment: IFN-γ ELISA, stimulation by tumor cell lines; conditions: transduced CD8+ T cells 40,000, target cells 20,000
Source text: (§2) IFN-γ ELISA was used to assess cytokine secretion upon stimulation of T11.8-10-17-transduced T cells (CD8_T11.8-10-17) with a panel of HLA-A*02:01 positive, NY-ESO-1/LAGE-1 positive human tumor cell lines (Me1624.38, FM6, FM3.29, MM415, SAOS2, U266). NY-ESO-1/LAGE-1 expression in the target cells was detected by NanoString nCounter® analysis. As positive control for T11.8-10-17-transduced T cells, T2 cells were loaded with SLL-peptide (10^−5 M). As negative controls for the effector function, T11.8-10-17-transduced T cells were co-cultured with T2 cells loaded with irrelevant (FTV) peptide (10^−5M), SK-Me123 (HLA-A2pos, NY-ESO-1/LAGE-1neg) or SKM1 (HLA-A2pos, NY-ESO-1/LAGE-1neg), or untransduced T cells were co-cultured with tumor cells or peptide-loaded T2 cells. Cultivation of target cells without effector cells served as an additional negative control. Target cells were co-cultured with T cells at a ratio of 2:1 using 40,000 T11.8-10-17-transduced T cells and 20,000 target cells. (FIG. 3).

FM6 = experiment: IFN-γ ELISA, stimulation by tumor cell lines; conditions: transduced CD8+ T cells 40,000, target cells 20,000
Source text: as §2

MM415 = experiment: IFN-γ ELISA, stimulation by tumor cell lines; conditions: transduced CD8+ T cells 40,000, target cells 20,000
Source text: as §2

Me1624.38 = experiment: IFN-γ ELISA, stimulation by tumor cell lines; conditions: transduced CD8+ T cells 40,000, target cells 20,000
Source text: as §2

SAOS2 = experiment: IFN-γ ELISA, stimulation by tumor cell lines; conditions: transduced CD8+ T cells 40,000, target cells 20,000
Source text: as §2

[4] = system: SK-Me123 (HLA-A2pos, NY-ESO-1/LAGE-1neg); experiment: IFN-γ ELISA, stimulation by tumor cell lines; conditions: antigen-negative line; transduced CD8+ T cells 40,000, target cells 20,000
Source text: as §2

[5] = system: SKM1 (HLA-A2pos, NY-ESO-1/LAGE-1neg); experiment: IFN-γ ELISA, stimulation by tumor cell lines; conditions: antigen-negative line; transduced CD8+ T cells 40,000, target cells 20,000
Source text: as §2

U266 = experiment: IFN-γ ELISA, stimulation by tumor cell lines; conditions: transduced CD8+ T cells 40,000, target cells 20,000
Source text: as §2

peptide-loaded T2 cells [6] = experiment: IFN-γ ELISA, peptide-loaded T2 controls of the tumor cell line panel
Source text: as §2

peptide-loaded T2 cells [7] = experiment: Recognition of mismatched epitopes: IFN-γ ELISA with peptide-loaded T2 cells; conditions: ratio 1:1
Method: As a negative control, untransduced CD8^+ enriched PBMC (CD8_UT) were used as effector cells or TCR-transgenic T cells were stimulated with irrelevant (irr.; […]) peptide-loaded T2 cells (10^−5 M). Background IFN-γ secretion of target cells was also tested (targets only). As a positive control T cells were activated by SLL peptide (#10*)-loaded T2 cells (10^−5 M). […] IFN-γ secretion was measured by standard ELISA in [pg/mL].

[8] = system: HLA-A*02:01-transgenic K562 cells; experiment: Recognition of ivtRNA mismatched epitopes: IFN-γ ELISA with HLA-A*02:01-transgenic K562 cells; conditions: 16 hours
Method: For this experiment, 3×10^6 K562 cells in 300 μl RPMI1640 medium were electroporated with 20 μg either NY-ESO-1 or eGFP-ivtRNA (300 Volt and 300 μF; exponential pulse). As positive control, T cells were stimulated with HLA-A*02:01-transgenic K562 cells loaded with either the SLL-peptide (10^−5M) (K562-A2+SLL) or with 20 μg ivtRNA encoding NY-ESO-1 (K562-A2+NY-ESO-1). As a negative control HLA-A*02:01-transgenic K562 were either loaded with irrelevant peptide (10^−5M; K562-A2+FTV) or with 20 μg ivtRNA encoding eGFP (K562-A2+eGFP).

[9] = system: T2 cells loaded with NY-ESO-1/LAGE-1157-165 (SLL) peptide (T2(SLL)); experiment: Secretion of MIP-1α and MIP-1β, multiplex assay (Milliplex MAP Kit); conditions: T2(SLL) 10^−5 M; ratio 1:1, 10 000 cells each; 18 hours; two donors; compared with the other TCR
Method: As negative control, T11.8-10-17- or benchmark-transgenic CD8^+ T cells were stimulated with HLA-A*02:01 positive FTV-loaded T2 cells or untransduced CD8^+ enriched PBMC (CD8_ut) were co-cultured with peptide-loaded T2 cells. Furthermore, T2 cells or T cells were cultured separately.
Target cells and T cells were co-cultured at a ratio of 1:1 using 10 000 target cells and 10 000 T11.8-10-17- or benchmark-TCR-transduced T cells. Secretion of MIP-1α and MIP-1β by either T11.8-10-17- or benchmark-transgenic CD8^+ T cells was determined 18 hours after setting up the co-culture by multiplex assay using the Milliplex MAP Kit and analyzed by the MagPix analyzer.

B1: T11.8-10-17: TCR of T cell clone T11.8-10-17 specific for NY-ESO-1/LAGE-1157-165 on HLA-A*02:01; variable α SEQ ID NO: 10, variable β SEQ ID NO: 11 (protein, listed as Homo sapiens)
alpha: MKSLRVLLVILWLQLSWVWSQQKEVEQNSGPLSVPEGAIASLNCTYSDRGSQSFFWYRQYSGKSPELIMFIYSNGDKEDGRFTAQLNKASQYVSLLIRDSQPSDSATYLCAADDKIIFGKGTRLHILPN
beta: MGSWTLCCVSLCILVAKHTDAGVIQSPRHEVTEMGQEVTLRCKPISGHDYLFWYRQTMMRGLELLIYFNNNVPIDDSGMPEDRFSAKMPNASFSTLKIQPSEPRDSAVYFCASSRGGSGYTFGSGTRLTVVE
[1]
  start of increase of red fluorescence (killing): 10 h
[1]; 67 hours
  killing of target cells (increase of red fluorescence, Annexin V): showed killing
[2]
  start of increase of red fluorescence (killing): 10 h
[2]; 67 hours
  killing of target cells (increase of red fluorescence, Annexin V): showed killing
[3]
  killing of target cells (increase of red fluorescence, Annexin V): no increase of red fluorescence was observed
FM3.29
  IFN-γ secretion: high amounts of IFN-γ secretion
FM6
  IFN-γ secretion: high amounts of IFN-γ secretion
MM415
  IFN-γ secretion: high amounts of IFN-γ secretion
Me1624.38
  IFN-γ secretion: high amounts of IFN-γ secretion
SAOS2
  IFN-γ secretion: high amounts of IFN-γ secretion
[4]
  recognition (IFN-γ secretion): no recognition
[5]
  recognition (IFN-γ secretion): no recognition
U266
  IFN-γ secretion: high amounts of IFN-γ secretion
peptide-loaded T2 cells [6]; T2 cells loaded with SLL-peptide (10^−5 M)
  IFN-γ secretion: high amounts of IFN-γ secretion
peptide-loaded T2 cells [6]; T2 cells loaded with irrelevant (FTV) peptide (10^−5 M)
  recognition (IFN-γ secretion): no recognition
peptide-loaded T2 cells [7]; T2 + irrelevant peptide (FTVSGNILTI) 10^−5 M
  peptide recognition (IFN-γ secretion): not the irrelevant peptide
peptide-loaded T2 cells [7]; T2 + peptide #3 10^−5 M
  cross-recognition (IFN-γ secretion): cross-recognized
peptide-loaded T2 cells [7]; T2 + peptide #6 10^−5 M
  cross-recognition (IFN-γ secretion): slightly activated
peptide-loaded T2 cells [7]; T2 + peptide #11 10^−5 M
  cross-recognition (IFN-γ secretion): slightly activated
peptide-loaded T2 cells [7]; T2 + peptide #32 10^−5 M
  cross-recognition (IFN-γ secretion): slightly activated
peptide-loaded T2 cells [7]; T2 + peptide #34 10^−5 M
  cross-recognition (IFN-γ secretion): slightly activated
peptide-loaded T2 cells [7]; T2 + peptide #51 10^−5 M
  cross-recognition (IFN-γ secretion): slightly activated
peptide-loaded T2 cells [7]; T2 + positive control peptide SLL (SLLMWITQC) 10^−5 M
  peptide recognition (IFN-γ secretion): recognized
[8]; K562-A2+#3, ivtRNA long peptide
  cross-recognition of internally processed peptide (IFN-γ release): no cross-recognition
[8]; K562-A2+#6, ivtRNA long peptide
  cross-recognition of internally processed peptide (IFN-γ release): no cross-recognition
[8]; K562-A2+#11, ivtRNA long peptide
  cross-recognition of internally processed peptide (IFN-γ release): no cross-recognition
[8]; K562-A2+#32, ivtRNA long peptide
  cross-recognition of internally processed peptide (IFN-γ release): no cross-recognition
[8]; K562-A2+#34, ivtRNA long peptide
  cross-recognition of internally processed peptide (IFN-γ release): no cross-recognition
[8]; K562-A2+#51, ivtRNA long peptide
  cross-recognition of internally processed peptide (IFN-γ release): no cross-recognition
[8]; K562-A2+NYESO, NY-ESO-1-ivtRNA transfected
  recognition (IFN-γ release): recognized
[8]; K562-A2+SLL, peptide-loaded 10^−5 M, target:T cell 2:1
  recognition (IFN-γ release): recognized
[8]; K562-A2+eGFP ivtRNA
  recognition (IFN-γ release): did not recognize
[8]; K562-A2+irr., irrelevant peptide 10^−5 M
  recognition (IFN-γ release): did not recognize
[9]
  MIP-1α secretion: markedly lower amounts
  MIP-1β secretion: markedly lower amounts
